Measured values reported in patent US11633499B2, “Anti-TMEM-180 antibody, anticancer drug and cancer testing method” (NATIONAL CANCER CENTER JAPAN, priority 2016, dated 2023).

T1: TMEM-180 (Homo sapiens, UniProt Q14CX5)
T1 construct: endogenous in cells; host or cells: DLD-1 colon cancer cell line (parent / wild type); culture supernatant exosomes in A20
T1 sequence (Q14CX5 1-517): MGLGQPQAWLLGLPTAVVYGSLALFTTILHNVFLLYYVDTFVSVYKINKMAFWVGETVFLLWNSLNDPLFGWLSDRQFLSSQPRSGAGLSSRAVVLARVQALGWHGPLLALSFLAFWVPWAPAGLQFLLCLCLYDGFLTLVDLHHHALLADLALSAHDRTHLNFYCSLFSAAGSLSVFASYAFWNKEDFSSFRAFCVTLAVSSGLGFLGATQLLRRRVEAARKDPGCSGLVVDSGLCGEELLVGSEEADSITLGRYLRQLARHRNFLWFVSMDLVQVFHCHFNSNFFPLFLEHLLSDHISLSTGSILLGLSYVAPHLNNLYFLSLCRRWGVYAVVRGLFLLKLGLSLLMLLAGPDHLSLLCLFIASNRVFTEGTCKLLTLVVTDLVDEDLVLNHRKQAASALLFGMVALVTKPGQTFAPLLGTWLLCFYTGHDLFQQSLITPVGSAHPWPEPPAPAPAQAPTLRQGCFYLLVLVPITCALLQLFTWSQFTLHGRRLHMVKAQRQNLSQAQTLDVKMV


Tests used:
[1] = biological target: T1, TMEM-180; experiment: FACS of DLD-1 parent line and TMEM-180 knockout line; assay type: binding
Experimental: The plate was centrifuged for 3 minutes at 440×g and 4° C. followed by removing the supernatant, adding antibody-producing hybridoma culture supernatant or antibody solution to the cell pellet at 50 μL/well and suspending therein. After allowing to react for 45 minutes on ice, the plate was washed three times with a mixture of 0.1% BSA, 2 mM EDTA and PBS at 200 μL/well. The supernatant was removed and secondary antibody was added to the cell pellet at 50 μL/well followed by suspending the cells therein. […] After allowing to react for 45 minutes on ice, the plate was washed three times with a mixture of 0.1% BSA, 2 mM EDTA and PBS at 200 μL/well. […] The cells stained in this manner were measured using a flow cytometer such as the Guava easyCyte 8HT (Merck Millipore Corporation) followed by analysis of the resulting data using FlowJO (Tomy Digital Biology Co., Ltd.). FACS analysis was carried out using colon cancer, brain tumor and hematologic cancer.
Flow cytometry was carried out in accordance with the procedure described in the above-mentioned section 3. […] The supernatant of a culture of hybridoma producing rat IgM antibody clone 365 was used as a negative control after similarly diluting to 1 μg/mL. […] A mixture of RPMI and 10% FBS was used to dilute each of the antibodies. Furthermore, antibody concentration in the hybridoma culture supernatant was measured by rat IgM-specific ELISA (Bethyl Laboratories).

[2] = tested on: DLD-1 colon cancer cells; experiment: Fluorescent immunostaining of DLD-1 colon cancer cells; assay type: binding, human; details: fixed and permeabilized DLD-1; antibody concentrations of clones not aligned; FIG. 4
Experimental: DLD-1 cells were added to a 96-well plate (Corning Incorporated, CeIIBIND) to a concentration of 5×10^3 cells/well and subjected to cell staining after culturing for 2 days. The cells were subjected to fixation and permeation treatment in the manner indicated below. After washing the cell culturing plate twice with PBS at 200 μL/well, the washings were removed followed by the addition of 4% para-formaldehyde-phosphate buffer (Wako Pure Chemical Industries, Ltd.) containing 0.1% TRITON™ (surfactant) X-100 (Wako Pure Chemical Industries, Ltd.) at 100 µL/well while cooling with ice and fixing the cells for 10 minutes. After removing the fixation solution, the plate was washed once with PBS at 200 μL/well and once with a mixture of 1% FBS in PBS at 200 μL/well to obtain a cell-immobilized plate. The cells were stained in the manner indicated below. Namely, after removing medium from the non-immobilized cell culturing plate and removing washings from the cell-immobilized plate, […] hybridoma culture supernatant or diluted antibody solution was added at 50 μL/well. After allowing to react for 1 hour on ice, the plate was washed once with PBS at 200 μL/well and twice with a mixture of 1% FBS in PBS at 200 μL/well. After removing the washings, a mixture of 5 μg/mL ALEXAFLUOR 647@ (fluorescent compound) goat anti-rat IgG (H-L), 2 μg/mL Hoechst 33342 and 1% FBS/PBS was added at 50 μL/well. After allowing to react for 1 hour on ice, the plate was washed twice with PBS at 200 μL/well. PBS was then added at 50 μL/well followed by measuring with ArrayScan (Thermo Fisher Scientific Inc.).

[3] = tested on: colon cancer cell lines; experiment: Flow cytometry (FACS) with anti-TMEM-180 IgM clones, colon cancer; assay type: binding; details: six types of colon cancers; FIG. 3
Experimental: (§1) Cancer cells targeted for measurement were cultured in medium and then added to a V-bottom 96-well plate (Corning Incorporated) to a concentration of 1×10^5 cells/well. The plate was centrifuged for 3 minutes at 440×g and 4° C. followed by removing the supernatant, adding antibody-producing hybridoma culture supernatant or antibody solution to the cell pellet at 50 μL/well and suspending therein. After allowing to react for 45 minutes on ice, the plate was washed three times with a mixture of 0.1% BSA, 2 mM EDTA and PBS at 200 μL/well. The supernatant was removed and secondary antibody was added to the cell pellet at 50 μL/well followed by suspending the cells therein. ALEXAFLUOR 647@ (fluorescent compound) goat anti-rat IgG (H-L) (Life Technologies Corporation) was used for the secondary antibody after diluting 400-fold with a mixture of 0.1% BSA, 2 mM EDTA and PBS. After allowing to react for 45 minutes on ice, the plate was washed three times with a mixture of 0.1% BSA, 2 mM EDTA and PBS at 200 μL/well. After removing the supernatant, 50 ng/mL of propidium iodide, 0.1% BSA, 2 mM EDTA and PBS were added to the cell pellet at 250 µL/well followed by suspending therein. The cells stained in this manner were measured using a flow cytometer such as the Guava easyCyte 8HT (Merck Millipore Corporation) followed by analysis of the resulting data using FlowJO (Tomy Digital Biology Co., Ltd.). FACS analysis was carried out using colon cancer, brain tumor and hematologic cancer.

[4] = tested on: brain tumor cell lines; experiment: Flow cytometry (FACS) with anti-TMEM-180 IgM clones, brain tumor; assay type: binding; details: four types of brain tumors; FIG. 3
Experimental: as §1

[5] = tested on: cell lines derived from cancers (ATCC and JCRB); experiment: Reactivity of antibodies to cancer-derived cell lines by FACS (Table 23); assay type: binding
[6] = tested on: cell lines derived from cancers (ATCC and JCRB); experiment: as above; assay type: binding; details: Cancer Type: Colon
Experimental: as §1
Cancer-detection rates were tested using monoclonal antibodies (the 669 antibody, 1052 antibody, 1105 antibody, and 1361 antibody).
In this Example, the reactivity of the antibodies to the cell lines derived from cancers which were obtained from ATCC and JCRB was analyzed by FACS.

Molecule	FACS shift, TMEM-180 knockout line versus parent line ([1]; DLD-1 parent line vs TMEM-180 knockout line, FIG. 5)	specific recognition of TMEM-180 ([1]; conclusion from DLD-1 parent vs knockout FACS)	fluorescent immunostaining (pattern, intensity) [2]	FACS reactivity to colon cancers [3]	FACS reactivity to brain tumors [4]	Detection Sensitivity of Cancers, P/N ([5]; Cancer Type: Bladder)	Detection Sensitivity of Cancers, Percentage (%) ([5]; Cancer Type: Bladder)	Detection Sensitivity of Cancers, P/N ([5]; Cancer Type: Brest)	Detection Sensitivity of Cancers, Percentage (%) ([5]; Cancer Type: Brest)	Detection Sensitivity of Cancers, P/N ([5]; Cancer Type: Gastric)	Detection Sensitivity of Cancers, Percentage (%) ([5]; Cancer Type: Gastric)	Detection Sensitivity of Cancers, P/N ([5]; Cancer Type: Pancreas)	Detection Sensitivity of Cancers, Percentage (%) ([5]; Cancer Type: Pancreas)	Detection Sensitivity of Cancers, P/N [6]	Detection Sensitivity of Cancers, Percentage (%) [6] [%]
rat-human chimeric antibody clone 98: rat-human chimeric IgG1 antibody carrying clone 98 variable regions (antibody, V domains shown) VH: QVQLKESGPGLVQPSQTLSLTCTVSGFSLTRYNVHWVRQPTGKGLEWMGVIWTGGSTDYNSALKSRLSISRDTSKSQVFLKMNSLQTEDIATYYCARDLGYWGQGVMVTVSS VL: DIVMTQTPLSLSVAIGQSASISCKSSQSLKYRDGKTYLNWVFQSPGQSPKRLIYQVSKLDSGVPDRFSGTGSETDFTLKISRVEAEDLGVYYCCQGSYSPHTFGAGTKLELK	considerable left shift	specifically recognize TMEM-180													
clone 212: rat IgM anti-TMEM-180 monoclonal antibody; variable regions SEQ ID NOs: 46 and 47 (antibody, V domains shown) VH: MDIRLSLAFLVLFIKGVQCEVQLVESGGGLVQPGNSLKLSCAASGFTFSDYAMAWVRQSPKKGLEWVATIIYDGSSTYYRDSVKGRFTISRDNAKSTLYLQMDSLRSEDTATYYCATHWYWYFDFWGPGTMVTVSS VL: MGVPTQLLGLLLLWITDAICDIQMTQSPASLSASLGETVSIECLASEGISNDLAWYQQKSGKSPQLLIYAASRLQDGVPSRFSGSGSGTRYSLKISGMQPEDEADYFCQQSYKYPLTFGSGTKLEIK			weaker fluorescence intensity than clone 98 and the cytoplasm was also stained	positive for all six types of colon cancers	positive for only one type of brain tumor										
clone 1052: rat IgM anti-TMEM-180 monoclonal antibody; variable regions SEQ ID NOs: 94 and 95 (antibody, V domains shown) VH: MAVLVLLLCLVTFPSCVLSQVQLKESGPGLMQPSETLSLTCTVSGFSLTSNGVGWVRQPLGKGLVWMGTIWTGGGTNYNSGVQSRLSISRDTSKSQVFLKMNSLQPEDTGTYYCAREYMGFDYWGQGVMVTVSS VL: MELISQVFVFLLLWLSGVYGNTVMTQSPTSMFTSVGDRVTMSCKASQNVGINVGWYQQKTGQSPKRLIYWASNRDTGVPDRFTGSGSGTDFTLTISNMQAEDPAIYYCLQHNSYPRTFGGGTKLELK						(2/4)	50	(3/6)	50	(2/8)	25	(4/9)	44	(3/10)	30
clone 1105: rat IgM anti-TMEM-180 monoclonal antibody; variable regions SEQ ID NOs: 102 and 103 (antibody, V domains shown) VH: MAVLVLLLCLVTFPSCVLSQVQLKESGPGLMQPSETLSLTCTVSGFSLTSNGVGWVRQPLGKGLVWMGTIWSGGGTNYNSAVQSRLSITRDTSKSQVFLKMNSLQPEDTGTYYCAREEKGFAYWGQGTLVTVSS VL: MELISQVFVFLLLWLSGVYGNIVMTQSPTSMSTSVGDRVTMSCKASQNVGINVGWYQQKTGQSPKRLIYWASNRDTGVPDRFTGSGSGTDFTLTISNMQAEDPAIYYCLQHNSYPRAFGGGTKLELR							50	(3/6)	50	(2/8)	25	(4/9)	44	(3/10)	30
